Experiment [1] concerns the target T1, recombinant human tumor necrosis factor alpha (human, UniProt P01375 77-233). The experiment is described as follows: BLI. (Biolayer interferometry detects binding as a change in optical thickness at a sensor tip.)
Experiment [2] concerns the target T1, recombinant human tumor necrosis factor …. The experiment is described as follows: BLI. The source holds these as a separate data set.

This passage reports Kd and koff results from paper PMC8809985 (2021).

T1 sequence (P01375 77-233): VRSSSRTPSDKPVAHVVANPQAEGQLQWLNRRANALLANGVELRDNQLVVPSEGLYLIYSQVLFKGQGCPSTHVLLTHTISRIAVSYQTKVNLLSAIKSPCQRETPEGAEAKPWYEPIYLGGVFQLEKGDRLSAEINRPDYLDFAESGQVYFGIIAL

B1: Haidalimumab (antibody, V domains shown)
VH: EVQLVESGGGLVQPGGSLRLSCAASGFPFSNHWMNWVRQAPGKGLEWVGEIRSKSMNSATHYAESVKGRFTISRDDSKNSLYLQMNSLKTEDTAVYYCARNYYGSTYDHWGQGTLVTVSS
VL: EIVLTQSPDFQSVTPKEKVTITCRASQFVGYSIHWYQQKPDQSPKLLIKYASESRSGVPSRFSGSGSGTDFTLTINSLEAEDAATYYCQQSHSWHFTFGQGTKLEIK
As a reminder, the Kd is a measure of binding affinity in units of concentration. In general, koff refers to the rate constant with which the complex falls apart. For the molecule B1, in experiment [1], the Kd worked out at 0.774 nM. Besides, the koff in experiment [2] amounted to 0.00023 s⁻¹.
